Experiment [1] addresses T1, human CD39 at cell surface (Homo sapiens, UniProt P49961).
T1 construct: cells that endogenously express CD39 at their surface, e.g. regulatory T (TReg) cells, B cells, cancer cells, lymphoma cells (e.g. Ramos cells); endogenous in cells; host or cells: Ramos human lymphoma cells
T1 sequence (P49961 1-510): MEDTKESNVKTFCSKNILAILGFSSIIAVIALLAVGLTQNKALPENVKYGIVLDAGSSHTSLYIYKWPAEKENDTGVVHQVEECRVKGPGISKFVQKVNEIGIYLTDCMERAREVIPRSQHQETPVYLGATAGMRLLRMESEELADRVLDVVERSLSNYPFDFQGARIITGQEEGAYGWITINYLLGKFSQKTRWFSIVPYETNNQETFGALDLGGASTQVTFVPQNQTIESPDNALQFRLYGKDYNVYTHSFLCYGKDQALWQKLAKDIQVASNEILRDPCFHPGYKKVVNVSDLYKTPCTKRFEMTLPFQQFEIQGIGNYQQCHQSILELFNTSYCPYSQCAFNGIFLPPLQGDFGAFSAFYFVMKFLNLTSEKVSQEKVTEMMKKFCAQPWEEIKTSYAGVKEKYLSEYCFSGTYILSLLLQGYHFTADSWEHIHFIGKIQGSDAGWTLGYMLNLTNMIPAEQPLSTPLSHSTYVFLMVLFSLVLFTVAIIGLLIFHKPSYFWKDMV
As to the kind of experiment: CD39 down-modulation / internalization on Ramos cells. It counts as cell-based. Particulars: Ramos human lymphoma cells, 10 μg/ml, 4° C. or 37° C.

Experiment [2] deals with T2, CD39 mutant 4 (D150A, E153S, R154A, S157K, N158A, L278F) (human, UniProt P49961 1-510).
T2 construct: Transfected in HEK293T cells
T2 chain: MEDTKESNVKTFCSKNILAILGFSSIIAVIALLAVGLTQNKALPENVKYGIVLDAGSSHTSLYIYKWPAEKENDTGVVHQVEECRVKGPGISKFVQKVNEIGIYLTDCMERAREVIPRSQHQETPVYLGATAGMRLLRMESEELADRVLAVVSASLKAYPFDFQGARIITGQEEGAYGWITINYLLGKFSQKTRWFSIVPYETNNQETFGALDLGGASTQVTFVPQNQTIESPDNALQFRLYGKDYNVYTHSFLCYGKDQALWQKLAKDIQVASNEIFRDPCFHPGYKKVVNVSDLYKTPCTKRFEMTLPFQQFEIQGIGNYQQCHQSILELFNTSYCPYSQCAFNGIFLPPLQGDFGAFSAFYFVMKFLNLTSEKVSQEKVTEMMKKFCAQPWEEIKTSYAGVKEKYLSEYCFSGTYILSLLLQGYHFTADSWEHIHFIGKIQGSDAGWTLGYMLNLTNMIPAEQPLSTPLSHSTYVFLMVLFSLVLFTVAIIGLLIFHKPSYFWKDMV
In words: flow cytometry, HEK293T cells transfected with mutant 4. On the technique in general: Flow cytometry measures light scatter and fluorescence of single cells or particles in a stream.

Experiment [3] has as its target T3, Recombinant human CD39-L3 (NTPDase3, ENTPD3) (human, UniProt O75355 44-485, limits assumed).
T3 construct: Coated in ELISA
T3 sequence: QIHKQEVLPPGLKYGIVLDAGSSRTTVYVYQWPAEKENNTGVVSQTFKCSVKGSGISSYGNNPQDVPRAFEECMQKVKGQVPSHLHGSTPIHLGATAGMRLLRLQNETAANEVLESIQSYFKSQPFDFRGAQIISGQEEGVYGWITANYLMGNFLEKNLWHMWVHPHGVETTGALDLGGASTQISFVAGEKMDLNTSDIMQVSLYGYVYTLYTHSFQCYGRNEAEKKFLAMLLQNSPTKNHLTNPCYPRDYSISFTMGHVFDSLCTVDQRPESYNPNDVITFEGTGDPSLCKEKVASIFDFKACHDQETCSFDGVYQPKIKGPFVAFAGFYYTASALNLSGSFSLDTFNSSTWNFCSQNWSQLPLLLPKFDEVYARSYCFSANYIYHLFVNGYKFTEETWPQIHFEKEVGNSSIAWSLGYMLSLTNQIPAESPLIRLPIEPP
As to the kind of experiment: ELISA on coated RechuCD39-L3, OD 450 nm [top panel CHS2-I-391]. The procedure:
(§1) Wells were washed in TBS Tween 20, and further saturated 2H at RT in TBS Blocking buffer. Dose range concentration of primary antibody was incubated in TBS blocking buffer for 2h at RT. Wells were washed in TBS Tween 20. […] Optical density was measured on Enspire at OD=450.
A general note: In an ELISA, binding on a coated surface is turned into a signal by an enzyme label.

Experiment [4] addresses T4, Recombinant human CD39-L4 (NTPDase5, ENTPD5) (human, UniProt O75356 25-428).
T4 construct: Coated in ELISA
T4 sequence: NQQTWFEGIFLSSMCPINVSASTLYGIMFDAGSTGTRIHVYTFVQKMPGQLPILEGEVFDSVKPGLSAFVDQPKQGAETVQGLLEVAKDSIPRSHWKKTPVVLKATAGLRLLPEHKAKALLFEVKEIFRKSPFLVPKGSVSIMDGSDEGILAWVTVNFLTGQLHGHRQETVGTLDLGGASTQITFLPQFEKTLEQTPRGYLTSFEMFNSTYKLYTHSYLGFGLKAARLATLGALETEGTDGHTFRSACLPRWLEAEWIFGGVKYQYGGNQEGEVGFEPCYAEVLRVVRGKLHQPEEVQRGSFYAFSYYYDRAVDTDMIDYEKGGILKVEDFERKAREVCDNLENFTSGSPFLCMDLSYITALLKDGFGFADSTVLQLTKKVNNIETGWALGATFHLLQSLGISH
As to the kind of experiment: ELISA on coated RechuCD39-L4, OD 450 nm [top panel CHS2-I-391]. Here is the method: as §1

The results in this text go back to patent US20190153113A1, “CD39 VASCULAR ISOFORM TARGETING AGENTS” (INNATE PHARMA, priority 2015, published 2019).

B1: I-392: anti-CD39 antibody, VH SEQ ID NO: 8 and VL SEQ ID NO: 9, chimeric human IgG1 with N297Q mutation (antibody, V domains shown)
VH: QIQLVQSGPEVKKPRETVKISCKASGYTFTHYGMNWVKQAPGKGLKWMGWINTYTGEPTYADDFKGRFAFSLEASASTAYLQINNLKNEDTATYFCARRRYEGNYVFYYFDYWGQGTTLTVSS
VL: DIQMTQSPASLSASVGETVTITCRASENIYSYFSWYQQKQGKSPQLLVYTAKTLAEGVPSRFSGSGSGTQFSLKINSLQPEDFGSYYCQHHYVTPYTFGGGTKLEIK
On to B1, for which the “CD39 down modulation / internalization” value in experiment [1] is on record as “do not induce CD39 down modulation nor CD39 internalization”.

B2: Antibody I-391, Fc silent recombinant chimeric human IgG1 with heavy chain N297Q mutation (antibody, V domains shown)
VH: QIQLVQSGPELKKPGETVKISCKASGYTFRNYGMNWVKQAPGKGLKWMGWINTYTGEPTYADDFKGRFAFSLATSASTAYLQISNLKNEDTATYFCARKAYYGSNYYFDYWGQGTTLTVSS
VL: DIVMTQSHKFMSTSVGDRVSITCKASQDVSTAVAWYQQKPGQSPKLLIYSASYRYTGVPDRFTGSGSGTDFTFTISTVQAEDLAVYYCQQHYTTPPYTFGGGTKLEIKR
As to B2, the binding result is on record as “binds” in experiment [2], “no binding (tested: 50 ug/ml)” in experiment [3] and “no binding (tested: 50 ug/ml)” in experiment [4].
